Data on 1 molecule can be found in publication PMC5020537, “A lack of peptide binding and decreased thermostability suggests that the CASKIN2 scaffolding protein SH3 domain may be vestigial” (BMC Structural Biology, 2016).

Assay [1] has as its target T1, CASKIN2 SH3 domain SH3-6x mutant (K290Y, H296E, A300E, R319W, Y336L, I341F) (human, UniProt Q8WXE0 284-348, K290Y | H296E | A300E | R319W | Y336L | I341F).
T1 construct: Made by Quikchange from the wild type construct; PDB 2KE9 is the wild type parent; also called 6x CASKIN-SH3 domain mutant
Nature of the assay: other fluorescence titration; peptide titrated into 1 μM SH3 domain; 10 mM Tris-HCl, pH 7.5, 150 mM NaCl, 0.05 % sodium azide; intrinsic tryptophan fluorescence, excitation 280 nm, emission 340 nm; fitted to a 1:1 protein to peptide complex. To be noted: both partners purified.

For assay [2], the target named is T2, human CASKIN2 SH3 domain (aa. 284-348), wild type (human, UniProt Q8WXE0 284-348).
T2 construct: CASKIN2, human, SH3 domain, residues 284-348, UniProt Q8WXE0; Cloned into BamHI/XhoI of pGEX4T2; Isotopically labelled (15N and/or 13C) for NMR; also called wild type CASKIN2 SH3 domain; WT
T2 sequence (Q8WXE0 284-348): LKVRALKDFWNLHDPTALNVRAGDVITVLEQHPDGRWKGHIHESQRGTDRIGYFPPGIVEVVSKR
The assay is described as above. To be noted: both partners purified.

Values joined by “and” are separate entries in the source; they are usually repeats but may differ in a detail not shown here. Equal values may be shown once.

T1 sequence (Q8WXE0 284-348 K290Y/H296E/A300E/R319W/Y336L/I341F): as the sequence (Q8WXE0 284-348) above, with K7Y, H13E, A17E, R36W, Y53L, I58F counted along it

B1: UBPY peptide YTPMVRENKPP (peptide)
peptide: YTPMVRENKPP
notes: peptide derived from the protein UBPY, corresponding to the UBPY ligand in the STAM2 SH3 domain structure PDB 1UJ0; contains an RxxKP motif; also called Class-III UBPY peptide; STAM2 ligand; source: synthetic peptide (Canpeptide, Montreal; > 90 % purity)
As a reminder, the Kd is the constant that tells how readily two partners part at equilibrium. Take B1: the Kd was 460 nM and 220 nM in assay [1]; 39000 ± 6000 nM in assay [2].
